In article PMC2064109 (The Journal of Cell Biology, 2007):

Target: T1, His-tagged bacterially expressed MBP-POSH fusion protein (human, UniProt Q7Z6J0 1-888)
T1 sequence (looked up): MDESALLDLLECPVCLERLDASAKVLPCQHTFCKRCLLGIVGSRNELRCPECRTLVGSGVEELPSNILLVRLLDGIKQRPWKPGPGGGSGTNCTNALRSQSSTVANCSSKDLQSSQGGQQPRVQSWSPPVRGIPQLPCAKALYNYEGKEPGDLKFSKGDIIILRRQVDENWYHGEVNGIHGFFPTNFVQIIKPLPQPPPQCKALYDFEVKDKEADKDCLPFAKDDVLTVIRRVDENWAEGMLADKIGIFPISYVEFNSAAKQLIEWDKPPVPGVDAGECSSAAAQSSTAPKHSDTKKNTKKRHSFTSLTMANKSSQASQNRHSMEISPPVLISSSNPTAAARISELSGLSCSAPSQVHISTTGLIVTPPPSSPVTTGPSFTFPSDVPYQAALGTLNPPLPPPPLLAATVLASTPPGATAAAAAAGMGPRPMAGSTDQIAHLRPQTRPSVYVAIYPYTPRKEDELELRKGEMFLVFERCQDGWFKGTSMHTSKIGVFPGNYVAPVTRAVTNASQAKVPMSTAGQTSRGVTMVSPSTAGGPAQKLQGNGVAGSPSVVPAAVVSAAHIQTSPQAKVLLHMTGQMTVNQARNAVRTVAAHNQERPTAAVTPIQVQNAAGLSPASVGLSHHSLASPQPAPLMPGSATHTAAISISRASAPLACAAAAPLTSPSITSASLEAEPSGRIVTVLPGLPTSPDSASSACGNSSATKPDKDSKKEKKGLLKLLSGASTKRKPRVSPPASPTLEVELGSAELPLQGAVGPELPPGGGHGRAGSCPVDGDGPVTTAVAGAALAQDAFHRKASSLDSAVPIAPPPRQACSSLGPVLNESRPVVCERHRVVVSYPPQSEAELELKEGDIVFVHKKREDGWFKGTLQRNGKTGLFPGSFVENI
Experiment: co-IP

B1: truncated Herp (tHerp; amino acids 1-272) with FLAG tag (domain or fragment, UniProt Q15011 1-272, looked up)
chain: MESETEPEPVTLLVKSPNQRHRDLELSGDRGWSVGHLKAHLSRVYPERPRPEDQRLIYSGKLLLDHQCLRDLLPKQEKRHVLHLVCNVKSPSKMPEINAKVAESTEEPAGSNRGQYPEDSSSDGLRQREVLRNLSSPGWENISRPEAAQQAFQGLGPGFSGYTPYGWLQLSWFQQIYARQYYMQYLAATAASGAFVPPPSAQEIPVVSAPAPAPIHNQFPAENQPANQNAAPQVVVNPGANQNLRMNAQGGPIVEEDDEINRDWLDWTYSAA
Q: Does B1 bind?
A: binds
